B1: Duplex DNA/DNA (dsDNA)
DNA 1: TTAAGCACGTCCGTACCATCGA
DNA 2: TCGATGGTACGGACGTGCTTAA
B2: 3'-5' DNA/DNA partial duplex (dsDNA)
DNA 1: TCGATGGTACGGACGTGCTTAAAGAAAAAAAAAA
DNA 2: TCGATGGTACGGACGTGCTTAA
B3: Y-fork (dsDNA)
DNA 1: AAAAAAAAAAGATTAAGCACGTCCGTACCATCGA
DNA 2: TCGATGGTACGGACGTGCTTAAAGAAAAAAAAAA

Assays:
Assay in all cases: EMSA
[1] = molecular target: T1, nPfh1 (nuclear isoform, wild-type) (Schizosaccharomyces pombe, UniProt Q9UUA2-2 1-785)
T1 sequence: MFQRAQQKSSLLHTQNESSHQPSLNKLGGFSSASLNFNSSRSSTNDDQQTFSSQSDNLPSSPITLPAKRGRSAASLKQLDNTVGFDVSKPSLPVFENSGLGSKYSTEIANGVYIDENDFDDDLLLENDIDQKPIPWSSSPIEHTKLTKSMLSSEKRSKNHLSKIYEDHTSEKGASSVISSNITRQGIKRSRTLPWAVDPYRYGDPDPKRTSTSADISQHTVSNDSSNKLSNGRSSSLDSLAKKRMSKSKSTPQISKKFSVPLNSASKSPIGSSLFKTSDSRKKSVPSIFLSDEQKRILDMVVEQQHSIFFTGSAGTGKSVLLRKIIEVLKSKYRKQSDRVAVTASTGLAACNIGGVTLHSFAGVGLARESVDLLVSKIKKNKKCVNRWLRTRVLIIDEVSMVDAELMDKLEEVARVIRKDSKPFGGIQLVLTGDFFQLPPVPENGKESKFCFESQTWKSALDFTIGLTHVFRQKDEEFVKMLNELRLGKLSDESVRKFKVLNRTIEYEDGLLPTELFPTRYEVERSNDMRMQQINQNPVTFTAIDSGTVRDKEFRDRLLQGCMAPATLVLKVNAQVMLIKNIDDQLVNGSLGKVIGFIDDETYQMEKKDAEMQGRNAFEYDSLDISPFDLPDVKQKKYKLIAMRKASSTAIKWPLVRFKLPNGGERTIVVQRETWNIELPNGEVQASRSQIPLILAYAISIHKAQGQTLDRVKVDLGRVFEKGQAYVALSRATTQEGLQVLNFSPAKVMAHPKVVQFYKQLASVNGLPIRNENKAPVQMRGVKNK

[2] = molecular target: T2, nPfh1-L430A (Schizosaccharomyces pombe, UniProt Q9UUA2-2 1-785, L410A)
T2 sequence: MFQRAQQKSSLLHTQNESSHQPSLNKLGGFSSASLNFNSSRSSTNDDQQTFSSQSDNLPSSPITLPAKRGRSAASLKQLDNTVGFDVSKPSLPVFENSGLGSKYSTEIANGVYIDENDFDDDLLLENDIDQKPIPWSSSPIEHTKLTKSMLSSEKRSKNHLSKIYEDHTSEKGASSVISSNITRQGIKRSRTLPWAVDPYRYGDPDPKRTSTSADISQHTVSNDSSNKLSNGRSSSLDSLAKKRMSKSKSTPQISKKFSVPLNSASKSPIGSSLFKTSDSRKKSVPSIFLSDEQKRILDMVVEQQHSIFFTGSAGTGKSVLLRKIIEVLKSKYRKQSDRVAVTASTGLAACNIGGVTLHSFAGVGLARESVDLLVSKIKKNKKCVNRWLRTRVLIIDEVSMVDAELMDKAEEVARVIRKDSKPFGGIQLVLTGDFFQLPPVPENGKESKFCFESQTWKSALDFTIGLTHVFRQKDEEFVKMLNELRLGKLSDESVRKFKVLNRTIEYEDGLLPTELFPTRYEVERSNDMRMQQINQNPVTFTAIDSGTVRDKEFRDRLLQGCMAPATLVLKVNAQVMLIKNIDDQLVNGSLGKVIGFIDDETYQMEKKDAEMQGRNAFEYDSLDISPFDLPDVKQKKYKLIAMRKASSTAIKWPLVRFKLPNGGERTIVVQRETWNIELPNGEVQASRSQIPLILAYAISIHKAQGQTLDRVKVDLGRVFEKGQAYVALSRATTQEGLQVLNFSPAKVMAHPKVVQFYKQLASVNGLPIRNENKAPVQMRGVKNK

[3] = molecular target: T3, nPfh1-Δ21 (Schizosaccharomyces pombe, UniProt Q9UUA2-2 1-785, del408-428)
T3 sequence: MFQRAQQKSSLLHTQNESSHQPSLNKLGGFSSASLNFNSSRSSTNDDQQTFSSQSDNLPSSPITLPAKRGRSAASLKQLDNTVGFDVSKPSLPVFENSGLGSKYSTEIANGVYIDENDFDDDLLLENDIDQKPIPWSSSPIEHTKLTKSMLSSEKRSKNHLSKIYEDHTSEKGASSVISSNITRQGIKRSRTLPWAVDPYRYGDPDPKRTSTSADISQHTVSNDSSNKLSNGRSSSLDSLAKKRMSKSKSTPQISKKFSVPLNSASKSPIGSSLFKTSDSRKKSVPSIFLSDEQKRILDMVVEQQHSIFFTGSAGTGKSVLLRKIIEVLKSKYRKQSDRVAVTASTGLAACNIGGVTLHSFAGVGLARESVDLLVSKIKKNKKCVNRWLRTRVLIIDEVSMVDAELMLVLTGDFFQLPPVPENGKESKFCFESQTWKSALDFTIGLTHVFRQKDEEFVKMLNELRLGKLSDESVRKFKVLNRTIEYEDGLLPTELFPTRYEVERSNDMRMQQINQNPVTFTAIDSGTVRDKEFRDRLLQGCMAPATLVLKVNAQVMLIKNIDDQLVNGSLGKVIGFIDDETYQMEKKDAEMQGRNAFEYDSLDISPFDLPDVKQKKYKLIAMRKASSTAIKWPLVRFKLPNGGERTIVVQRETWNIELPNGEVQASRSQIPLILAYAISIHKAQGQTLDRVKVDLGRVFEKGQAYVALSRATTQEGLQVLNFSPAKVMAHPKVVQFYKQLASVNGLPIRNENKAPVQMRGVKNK

[4] = molecular target: T4, nPfh1-L430P (Schizosaccharomyces pombe, UniProt Q9UUA2-2 1-785, L410P)
T4 sequence: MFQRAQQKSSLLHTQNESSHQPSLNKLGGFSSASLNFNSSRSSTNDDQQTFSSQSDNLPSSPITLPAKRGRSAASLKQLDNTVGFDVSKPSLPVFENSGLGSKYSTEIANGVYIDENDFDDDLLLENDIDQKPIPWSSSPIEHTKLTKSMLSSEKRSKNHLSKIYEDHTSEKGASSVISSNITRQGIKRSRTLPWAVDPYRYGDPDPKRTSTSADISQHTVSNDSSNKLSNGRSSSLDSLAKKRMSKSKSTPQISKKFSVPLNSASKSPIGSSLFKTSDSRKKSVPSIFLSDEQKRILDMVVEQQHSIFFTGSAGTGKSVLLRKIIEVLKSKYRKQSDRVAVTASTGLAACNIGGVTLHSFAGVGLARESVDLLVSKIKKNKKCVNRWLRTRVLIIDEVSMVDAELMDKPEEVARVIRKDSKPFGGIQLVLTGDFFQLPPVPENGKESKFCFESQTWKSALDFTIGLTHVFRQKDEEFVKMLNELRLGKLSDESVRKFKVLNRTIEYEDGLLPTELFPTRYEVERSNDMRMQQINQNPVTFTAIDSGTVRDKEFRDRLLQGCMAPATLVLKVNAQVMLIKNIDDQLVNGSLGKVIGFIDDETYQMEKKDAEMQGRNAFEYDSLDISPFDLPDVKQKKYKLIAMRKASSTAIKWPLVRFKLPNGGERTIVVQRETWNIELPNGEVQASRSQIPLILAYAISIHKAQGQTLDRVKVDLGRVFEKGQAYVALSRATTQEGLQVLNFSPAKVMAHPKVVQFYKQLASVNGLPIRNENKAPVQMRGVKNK

| Binder | binding result [1] | binding signal [2] | binding signal [3] | binding signal [4] |
| --- | --- | --- | --- | --- |
| B1 | no binding | – | – | – |
| B2 | no binding | – | – | – |
| B3 | – | < 5 % bound | < 5 % bound | < 5 % bound |

— article PMC6144812
